# Experimental data taken from patent US20160368985A1.
# How the values were obtained:
# [1] = molecular target: human CD3ε (human) (UniProt P07766); test: BIACORE and Scatchard; monovalent KD of anti-CD3 arm; legend prints 2.5 nM
# [2] = molecular target: truncated human FcRH5 (deletion of amino acids 1-744) with N-terminal gD tag (human) (UniProt Q96RD9); test: cell-based or functional assay
# Sequence of truncated human FcRH5 (deletion of amino acids 1-744) with N-terminal gD tag (human) (Q96RD9 745-977, stated change not applied): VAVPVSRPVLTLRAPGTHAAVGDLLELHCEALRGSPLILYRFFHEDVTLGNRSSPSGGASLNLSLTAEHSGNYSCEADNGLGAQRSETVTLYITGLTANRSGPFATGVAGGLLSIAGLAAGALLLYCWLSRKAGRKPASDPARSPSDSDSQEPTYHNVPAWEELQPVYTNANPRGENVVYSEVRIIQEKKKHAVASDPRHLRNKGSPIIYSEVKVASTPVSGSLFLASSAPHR
# Sequence of human CD3ε (human) (P07766 22-126): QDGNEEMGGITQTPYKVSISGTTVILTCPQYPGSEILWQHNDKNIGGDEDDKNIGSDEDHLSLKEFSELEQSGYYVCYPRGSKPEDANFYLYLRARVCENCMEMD
Kd [1] [nM],Substance,"killing of cells expressing the truncated target, EC50 [2] [nM]"
2,anti-CD3 antibody huUCHT1.v9,–
–,anti-gD/UCHT1.v9 TDB (bispecific antibody),0.19
